Experimental data from patent US11879134.

Assays:
[1] = system: Type I-B Cas complex (Clo1313_2969-2976; Cas3, Cas5, Cas8, Cas6, DevR) (Clostridium thermocellum); test: cell_activity
[2] = system: ThermoCas9; test: cell_activity; conditions: PAM NNNNCNAA; no cell killing observed

Q: With “AUAAUGACAUUUAUGGUACUGUUGUGGUAAUAGACGA / CAGTTAATAATGACATTTATGGTACTGTTGTGGTAATAGACGA / TCGTCTATTACCACAACAGTACCATAAATGTCATTATTAACTG” as the sequence, how does the activity ([1]; PAM 5'-CAGTTA, plasmid interference, strong spacer promoter, spacer sequence from Table 1 pTY series, scale: fold decrease in transformation efficiency) read?
A: 10

Q: Which activity (% cell killing) ([1]; PAM 5'-TTA, strain LL1586, chromosomal pyrF, 65.8% with native cas promoter) does the source give for “UGAGAUUGUUGCGGAGUAUGUUGAAUCAUGGGGUGAA / TGAGATTGTTGCGGAGTATGTTGAATCATGGGGTGAA / TTCACCCCATGATTCAACATACTCCGCAACAATCTCA [Type I-B pyrF target spacer ; pyrF site, Type I-B, PAM TTA]” here?
A: 99.8

Q: With “GCAUAUUUGUUCUGGUCAAG / GCATATTTGTTCTGGTCAAG / CTTGACCAGAACAAATATGC [ThermoCas9 sgRNA#1 spacer ; pyrF site, ThermoCas9 #1]” as the sequence, how does the activity (% cell killing) [2] read?
A: 0

Q: For “CUUGAAGGCAUGAGGGUGUUUUAUGAAACUUGCAAAU / CTTGAAGGCATGAGGGTGTTTTATGAAACTTGCAAAT / ATTTGCAAGTTTCATAAAACACCCTCATGCCTTCAAG”, which activity ([1]; no-PAM (GGC) control, target spacer gives 7 CFU/ug) is on record?
A: 18000 CFU/µg DNA
